# B1: IL-5R-alpha (protein, UniProt Q01344 21-420, looked up)
# Interleukin-5 receptor …: DLLPDEKISLLPPVNFTIKVTGLAQVLLQWKPNPDQEQRNVNLEYQVKINAPKEDDYETRITESKCVTILHKGFSASVRTILQNDHSLLASSWASAELHAPPGSPGTSIVNLTCTTNTTEDNYSRLRSYQVSLHCTWLVGTDAPEDTQYFLYYRYGSWTEECQEYSKDTLGRNIACWFPRTFILSKGRDWLAVLVNGSSKHSAIRPFDQLFALHAIDQINPPLNVTAEIEGTRLSIQWEKPVSAFPIHCFDYEVKIHNTRNGYLQIEKLMTNAFISIIDDLSKYDVQVRAAVSSMCREAGLWSEWSQPIYVGNDEHKPLREWFVIVIMATICFILLILSLICKICHLWIKLFPPIPAPKSNIKDLFVTTNYEKAGSSETEIEVICYIEKPGVETLEDSVF
# B2: PRTN3 (protein, UniProt P24158 28-248, looked up)
# Myeloblastin: IVGGHEAQPHSRPYMASLQMRGNPGSHFCGGTLIHPSFVLTAAHCLRDIPQRLVNVVLGAHNVRTQEPTQQHFSVAQVFLNNYDAENKLNDVLLIQLSSPANLSASVATVQLPQQDQPVPHGTQCLAMGWGRVGAHDPPAQVLQELNVTVVTFFCRPHNICTFVPRRKAGICFGDSGGPLICDGIIQGIDSFVIWGCATRLFPDFFTRVALYVDWIRSTLR
# B3: gal-8 (protein, UniProt O00214 1-317, looked up)
# Galectin-8: MMLSLNNLQNIIYNPVIPFVGTIPDQLDPGTLIVIRGHVPSDADRFQVDLQNGSSMKPRADVAFHFNPRFKRAGCIVCNTLINEKWGREEITYDTPFKREKSFEIVIMVLKDKFQVAVNGKHTLLYGHRIGPEKIDTLGIYGKVNIHSIGFSFSSDLQSTQASSLELTEISRENVPKSGTPQLRLPFAARLNTPMGPGRTVVVKGEVNANAKSFNVDLLAGKSKDIALHLNPRLNIKAFVRNSFLQESWGEEERNITSFPFSPGMYFEMIIYCDVREFKVAVNGVHSLEYKHRFKELSSIDTLEINGDIHLLEVRSW
# B4: ESM-1 (protein, UniProt Q9NQ30 20-184, looked up)
# Endothelial cell-specific …: WSNNYAVDCPQHCDSSECKSSPRCKRTVLDDCGCCRVCAAGRGETCYRTVSGMDGMKCGPGLRCQPSNGEDPFGEEFGICKDCPYGTFGMDCRETCNCQSGICDRGTGKCLKFPFFQYSVTKSSNRFVSLTEHDMASGDGNIVREEVVKENAAGSPVMRKWLNPR
# B5: SNAP29 (protein, UniProt O95721 1-258, looked up)
# Synaptosomal-associated …: MSAYPKSYNPFDDDGEDEGARPAPWRDARDLPDGPDAPADRQQYLRQEVLRRAEATAASTSRSLALMYESEKVGVASSEELARQRGVLERTEKMVDKMDQDLKISQKHINSIKSVFGGLVNYFKSKPVETPPEQNGTLTSQPNNRLKEAISTSKEQEAKYQASHPNLRKLDDTDPVPRGAGSAMSTDAYPKNPHLRAYHQKIDSNLDELSMGLGRLKDIALGMQTEIEEQDDILDRLTTKVDKLDVNIKSTERKVRQL
# B6: GCNT1 (protein, UniProt Q02742 1-428, looked up)
# Beta-1,3-galactosyl-O-glycosyl …: MLRTLLRRRLFSYPTKYYFMVLVLSLITFSVLRIHQKPEFVSVRHLELAGENPSSDINCTKVLQGDVNEIQKVKLEILTVKFKKRPRWTPDDYINMTSDCSSFIKRRKYIVEPLSKEEAEFPIAYSIVVHHKIEMLDRLLRAIYMPQNFYCIHVDTKSEDSYLAAVMGIASCFSNVFVASRLESVVYASWSRVQADLNCMKDLYAMSANWKYLINLCGMDFPIKTNLEIVRKLKLLMGENNLETERMPSHKEERWKKRYEVVNGKLTNTGTVKMLPPLETPLFSGSAYFVVSREYVGYVLQNEKIQKLMEWAQDTYSPDEYLWATIQRIPEVPGSLPASHKYDLSDMQAVARFVKWQYFEGDVSKGAPYPPCDGVHVRSVCIFGAGDLNWMLRKHHLFANKFDVDVDLFAIQCLDEHLRHKALETLKH
# B7: TYMP (protein, UniProt P19971 11-482, looked up)
# Thymidine phosphorylase: APPAPGDFSGEGSQGLPDPSPEPKQLPELIRMKRDGGRLSEADIRGFVAAVVNGSAQGAQIGAMLMAIRLRGMDLEETSVLTQALAQSGQQLEWPEAWRQQLVDKHSTGGVGDKVSLVLAPALAACGCKVPMISGRGLGHTGGTLDKLESIPGFNVIQSPEQMQVLLDQAGCCIVGQSEQLVPADGILYAARDVTATVDSLPLITASILSKKLVEGLSALVVDVKFGGAAVFPNQEQARELAKTLVGVGASLGLRVAAALTAMDKPLGRCVGHALEVEEALLCMDGAGPPDLRDLVTTLGGALLWLSGHAGTQAQGAARVAAALDDGSALGRFERMLAAQGVDPGLARALCSGSPAERRQLLPRAREQEELLAPADGTVELVRALPLALVLHELGAGRSRAGEPLRLGVGAELLVDVGQRLRRGTPWLRVHRDGPALSGPQSRALQEALVLSDRAPFAAPSPFAELVLPPQQ
# B8: STK4 (protein, UniProt Q13043 1-487, looked up)
# Serine/threonine-protein …: METVQLRNPPRRQLKKLDEDSLTKQPEEVFDVLEKLGEGSYGSVYKAIHKETGQIVAIKQVPVESDLQEIIKEISIMQQCDSPHVVKYYGSYFKNTDLWIVMEYCGAGSVSDIIRLRNKTLTEDEIATILQSTLKGLEYLHFMRKIHRDIKAGNILLNTEGHAKLADFGVAGQLTDTMAKRNTVIGTPFWMAPEVIQEIGYNCVADIWSLGITAIEMAEGKPPYADIHPMRAIFMIPTNPPPTFRKPELWSDNFTDFVKQCLVKSPEQRATATQLLQHPFVRSAKGVSILRDLINEAMDVKLKRQESQQREVDQDDEENSEEDEMDSGTMVRAVGDEMGTVRVASTMTDGANTMIEHDDTLPSQLGTMVINAEDEEEEGTMKRRDETMQPAKPSFLEYFEQKEKENQINSFGKSVPGPLKNSSDWKIPQDGDYEFLKSWTVEDLQKRLLALDPMMEQEIEEIRQKYQSKRQPILDAIEAKKRRQQNF
# B9: EGLN1 (protein, UniProt Q9GZT9 2-426, looked up)
# Egl nine homolog 1: ANDSGGPGGPSPSERDRQYCELCGKMENLLRCSRCRSSFYCCKEHQRQDWKKHKLVCQGSEGALGHGVGPHQHSGPAPPAAVPPPRAGAREPRKAAARRDNASGDAAKGKVKAKPPADPAAAASPCRAAAGGQGSAVAAEAEPGKEEPPARSSLFQEKANLYPPSNTPGDALSPGGGLRPNGQTKPLPALKLALEYIVPCMNKHGICVVDDFLGKETGQQIGDEVRALHDTGKFTDGQLVSQKSDSSKDIRGDKITWIEGKEPGCETIGLLMSSMDDLIRHCNGKLGSYKINGRTKAMVACYPGNGTGYVRHVDNPNGDGRCVTCIYYLNKDWDAKVSGGILRIFPEGKAQFADIEPKFDRLLFFWSDRRNPHEVQPAYATRYAITVWYFDADERARAKVKYLTGEKGVRVELNKPSDSVGKDVF
# B10: CLEC4D (protein, UniProt Q8WXI8 1-215, looked up)
# C-type lectin domain family 4 …: MGLEKPQSKLEGGMHPQLIPSVIAVVFILLLSVCFIASCLVTHHNFSRCKRGTGVHKLEHHAKLKCIKEKSELKSAEGSTWNCCPIDWRAFQSNCYFPLTDNKTWAESERNCSGMGAHLMTISTEAEQNFIIQFLDRRLSYFLGLRDENAKGQWRWVDQTPFNPRRVFWHKNEPDNSQGENCVVLVYNQDKWAWNDVPCNFEASRICKIPGTTLN
# B11: SH2B3 (protein, UniProt Q9UQQ2 1-575, looked up)
# SH2B adapter protein 3: MNGPALQPSSPSSAPSASPAAAPRGWSEFCELHAVAAARELARQYWLFAREHPQHAPLRAELVSLQFTDLFQRYFCREVRDGRAPGRDYRDTGRGPPAKAEASPEPGPGPAAPGLPKARSSEELAPPRPPGPCSFQHFRRSLRHIFRRRSAGELPAAHTAAAPGTPGEAAETPARPGLAKKFLPWSLAREPPPEALKEAVLRYSLADEASMDSGARWQRGRLALRRAPGPDGPDRVLELFDPPKSSRPKLQAACSSIQEVRWCTRLEMPDNLYTFVLKVKDRTDIIFEVGDEQQLNSWMAELSECTGRGLESTEAEMHIPSALEPSTSSSPRGSTDSLNQGASPGGLLDPACQKTDHFLSCYPWFHGPISRVKAAQLVQLQGPDAHGVFLVRQSETRRGEYVLTFNFQGIAKHLRLSLTERGQCRVQHLHFPSVVDMLHHFQRSPIPLECGAACDVRLSSYVVVVSQPPGSCNTVLFPFSLPHWDSESLPHWGSELGLPHLSSSGCPRGLSPEGLPGRSSPPEQIFHLVPSPEELANSLQHLEHEPVNRARDSDYEMDSSSRSHLRAIDNQYTPL
# B12: TNFRSF11A (protein, UniProt Q9Y6Q6 30-616, looked up)
# Tumor necrosis factor …: IAPPCTSEKHYEHLGRCCNKCEPGKYMSSKCTTTSDSVCLPCGPDEYLDSWNEEDKCLLHKVCDTGKALVAVVAGNSTTPRRCACTAGYHWSQDCECCRRNTECAPGLGAQHPLQLNKDTVCKPCLAGYFSDAFSSTDKCRPWTNCTFLGKRVEHHGTEKSDAVCSSSLPARKPPNEPHVYLPGLIILLLFASVALVAAIIFGVCYRKKGKALTANLWHWINEACGRLSGDKESSGDSCVSTHTANFGQQGACEGVLLLTLEEKTFPEDMCYPDQGGVCQGTCVGGGPYAQGEDARMLSLVSKTEIEEDSFRQMPTEDEYMDRPSQPTDQLLFLTEPGSKSTPPFSEPLEVGENDSLSQCFTGTQSTVGSESCNCTEPLCRTDWTPMSSENYLQKEVDSGHCPHWAASPSPNWADVCTGCRNPPGEDCEPLVGSPKRGPLPQCAYGMGLPPEEEASRTEARDQPEDGADGRLPSSARAGAGSGSSPGGQSPASGNVTGNSNSTFISSGQVMNFKGDIIVVYVSQTSQEGAAAAAEPMGRPVQEETLARRDSFAGNGPRFPDPCGGPEGLREPEKASRPVQEQGGAKA
# B13: SIGLEC6 (protein, UniProt O43699 27-453, looked up)
# Sialic acid-binding Ig-like …: QERRFQLEGPESLTVQEGLCVLVPCRLPTTLPASYYGYGYWFLEGADVPVATNDPDEEVQEETRGRFHLLWDPRRKNCSLSIRDARRRDNAAYFFRLKSKWMKYGYTSSKLSVRVMALTHRPNISIPGTLESGHPSNLTCSVPWVCEQGTPPIFSWMSAAPTSLGPRTTQSSVLTITPRPQDHSTNLTCQVTFPGAGVTMERTIQLNVSYAPQKVAISIFQGNSAAFKILQNTSSLPVLEGQALRLLCDADGNPPAHLSWFQGFPALNATPISNTGVLELPQVGSAEEGDFTCRAQHPLGSLQISLSLFVHWKPEGRAGGVLGAVWGASITTLVFLCVCFIFRVKTRRKKAAQPVQNTDDVNPVMVSGSRGHQHQFQTGIVSDHPAEAGPISEDEQELHYAVLHFHKVQPQEPKVTDTEYSEIKIHK
# Test system: plasma proteins
# Assay: Plasma proteins modulated between baseline and day 28 in responders (CR, VGPR, PR; n = 19), Example 6 (Table 13)
# Format: in vivo, human
# Conditions: plasma protein (OLINK NPX); responders (CR, VGPR, PR; n = 19); itacitinib 200 mg or 300 mg QD with corticosteroids; day 28 vs baseline
# Protocol: Due to the limited sample size, steroid-naive (N=10) and steroid-refractory (N=18) patients were combined for further analysis. Broad proteomic analysis of over 1000 proteins was conducted by OLINK Proteomics (Watertown, MA) using a proximity extension assay as described by the manufacturer. Data are presented as normalized protein expression (NPX) in log 2 scale. Statistical differences were evaluated using unpaired and paired t tests, one-way […] (ANOVA), and Pearson Correlation. Significance was conferred when P<0.05.
# Longitudinal differences in protein expression were analyzed by evaluating plasma samples from baseline/screening and day 28.
row,Molecule,"Fold Change, Decreased Expression from Baseline to Day 28"
1,B1,−1.6599
2,B2,−1.7658
3,B3,−1.3154
4,B4,−1.4178
5,B5,−1.6325
6,B6,−1.3034
7,B7,−1.7313
8,B8,−1.8393
9,B9,−1.3184
10,B10,−1.7084
11,B11,−1.7273
12,B12,−1.3519
13,B13,−1.9024
